pKd: −log10 of the molar value.
What was measured:
Experiment in all cases: SPR
CD4 = CD4 (UniProt P01730)
Full length Hxbc2 gp120 = molecular target: Full length Hxbc2 gp120
WT Hxbc2 core = molecular target: WT Hxbc2 core

Substance | pKd (CD4) | pKd (Full length Hxbc2 gp120) | pKd (WT Hxbc2 core)
Full length Hxbc2 gp120 | 8.20 | – | –
WT Hxbc2 core | 7.82 | – | –
b12 | – | 8.58 | 8.57

Source: patent publication US20120034254A1
